According to publication doi:10.1101/2024.10.08.617332 (bioRxiv, 2024):

B1: αE-catenin α(CA) (M319G/R326E/R551E), as chain of the supra-complex (natural protein, mouse, UniProt P26231 1-906, looked up)
chain: MTAVHAGNINFKWDPKSLEIRTLAVERLLEPLVTQVTTLVNTNSKGPSNKKRGRSKKAHVLAASVEQATENFLEKGDKIAKESQFLKEELVVAVEDVRKQGDLMKSAAGEFADDPCSSVKRGNMVRAARALLSAVTRLLILADMADVYKLLVQLKVVEDGILKLRNAGNEQDLGIQYKALKPEVDKLNIMAAKRQQELKDVGNRDQMAAARGILQKNVPILYTASQACLQHPDVAAYKANRDLIYKQLQQAVTGISNAAQATASDDAAQHQGGSGGELAYALNNFDKQIIVDPLSFSEERFRPSLEERLESIISGAALGADSSCTEDDRRERIVAECNAVRQALQDLLSEYMGNAGRKERSDALNSAIDKMTKKTRDLRRQLRKAVMDHVSDSFLETNVPLLVLIEAAKNGNEKEVKEYAQVFREHANKLIEVANLACSISNNEEGVKLVRMSASQLEALCPQVINAALALAAKPQSKLAQENMDLFKEQWEKQVRVLTDAVDDITSIDDFLAVSENHILEDVNKCVIALQEKDVDGLDRTAGAIRGRAAEVIHVVTSEMDNYEPGVYTEKVLEATKLLSNTVMPRFTEQVEAAVEALSSDPAQPMDENEFIDASRLVYDGIRDIRKAVLMIRTPEELDDSDFETEDFDVRSRTSVQTEDDQLIAGQSARAIMAQLPQEQKAKIAEQVASFQEEKSKLDAEVSKWDDSGNDIIVLAKQMCMIMMEMTDFTRGKGPLKNTSDVISAAKKIAEAGSRMDKLGRTIADHCPDSACKQDLLAYLQRIALYCHQLNICSKVKAEVQNLGGELVVSGVDSAMSLIQAAKNLMNAVVQTVKASYVASTKYQKSQGMASLNLPAVSWKMKAPEKKPLVKREKQDETQTKIKRASQKKHVNPVQALSEFKAMDSI
notes: αE-catenin, mouse, untagged; residues 690–903 are modelled in the structure; used for the pairs that touch in the cryo-EM structure; also called αE-catenin ABD; ABD1; source: FreeStyle 293-F, co-expressed and purified within the tetramer Eβα(CA)-vinculin(T12-IV)
B2: afadin-CC (afadin coiled-coil region, residues 1393–1602), purified (domain or fragment, mouse, UniProt Q9QZQ1-3 1393-1602, looked up)
chain: ANQAGPQSAQVAAAEWKKREEHQRWYEKEKARLEEERERKRREQERKLGQMRSQTLNPASFSPLATQAKPEKPSTLQRPQETVIRELQPQQQPRTIERKDLQYITISKEELSSGDSLSPDPWKRDAREKLEKQQQMHIVDMLSKEIHELQNKVDRTAEESDRLRKLMLEWQFQKRLQESKQKDEDDDEEEDDDVDTMLIMQRLEAERRAR
notes: afadin coiled-coil region (afadin-CC), mouse; residues 1508–1578 are modelled in the structure; source: FreeStyle 293-F, transfected, purified (anti-GFP beads, TEV, MonoQ, SEC); not shown: GFP, N-terminal, cleaved

Tests used:
[1] = target: F-actin (chicken skeletal muscle actin) (UniProt P68139); assay: F-actin co-sedimentation assay; details: +CC (black bar; with mutant afadin-CC); mean ± SD of three independent experiments; parent: est. 0.89; read off a plot
[2] = target: the molecule itself; assay: cryo-EM structure; 2.5 μM tetramer Eβα(CA)-Vinculin(T12-IV) premixed with 5 μM afadin-CC, added to 0.6 μM F-actin on the grid; maps at 3.1 Å (straight, both strands decorated) and 4.1 Å (curved, one strand decorated)
[3] = target: B1; assay: as above; details: both partners purified

| Molecule | response [1] | other results |
| --- | --- | --- |
| Eβα(CA)–vinculin(T12-IV)–afadin-CC pentamer (from UniProt Q02248;P26231;P18206-2;Q9QZQ1-3) afadin-CC:F1564A | 0.35 |  |
| Eβα(CA)–vinculin(T12-IV)–afadin-CC pentamer (from UniProt Q02248;P26231;P18206-2;Q9QZQ1-3) afadin-CC:W1514A; afadin-CC:R1516A; afadin-CC:D1517A; afadin-CC:F1564A | 0.3 |  |
| B1 |  | binding result [2]: binds |
| B2 |  | binding result [3]: binds |
